Data: article PMC7749166 (Communications Biology, 2020)
Read-outs that look alike come from different tables or passages of the source. Bridge positions count the residues as written; N and C are the ends. Square brackets hold non-standard residues; d marks the D form. Ends that are not written are not given here. dCha = N[C@H](CC1CCCCC1)C(=O)O; Orn = NCCC[C@H](N)C(=O)O

What was measured:
C5aR [1] = conditions: cited from earlier work
Excerpt: GPCRs represent the largest human membrane protein family, having overall more than 800 members, and constitute a “control panel” of the cell[27]. […] However, the peptidic nat ...

C5aR [2] = conditions: cited from earlier work; remark: listed apart in the source
Excerpt: G-protein-coupled receptors (GPCRs) are a large family of versatile and dynamic cell surface receptors expressed in almost all tissue types. Upon ligand binding to highly conserved orthosteric binding sites, GPCR pass from a quiescent to an active state, initiating signal transduction. The conservation of orthosteric binding sites throughout the GPCR superfamily and a poor understanding of the mechanism underneath their activation cycle are two key factors currently hampering the development of specific drugs towards a specific sub-type in a GPCR family. […] We simultaneously recorded FD-based AFM height images and adhesion maps (Fig. 3b, c) and extracted FD curves located on C5aR having their native orientation (based on our height criterion) (Fig. 3d). Generally, force-probing methods such as FD-based AFM measure the strength of single bonds under an externally applied force. Described first by the Bell-Evans model, an external force stressing a bond reduces the activation-energy barri ...

[3] = biological target: T1, wild type C5a anaphylatoxin chemotactic receptor 1 (C5aR), reconstituted in DOPC/CHS liposomes (human, UniProt P21730 1-350, sulfonated tyrosine residues (Y11 and Y14)); assay: AFM dynamic force spectroscopy (FV- and FD-based AFM, Friddle-Noy-de Yoreo fit); PMX53-Gly3-Cys coupled by its Cys to a PEG27-maleimide tip; C5aR (wild type or mutant) in DOPC/CHS liposomes adsorbed on mica; imaging buffer 20 mM HEPES, 300 mM NaCl; ≈24 °C; Kd calculated from ΔGbu = kbT × ln(0.018 Kd); conditions: both partners purified
T1 construct: C5a anaphylatoxin chemotactic receptor 1 (C5aR), human; wild type; Receptors lie in both orientations in the bilayer; also called C5aR^WT; wtC5aR; source: HEK-293S GnTI- cells (BacMam), purified (Ni-NTA, anti-Flag M1 resin, SEC), reconstituted in DOPC/CHS liposomes; not shown: His8, C-terminal, kept
T1 sequence (looked up): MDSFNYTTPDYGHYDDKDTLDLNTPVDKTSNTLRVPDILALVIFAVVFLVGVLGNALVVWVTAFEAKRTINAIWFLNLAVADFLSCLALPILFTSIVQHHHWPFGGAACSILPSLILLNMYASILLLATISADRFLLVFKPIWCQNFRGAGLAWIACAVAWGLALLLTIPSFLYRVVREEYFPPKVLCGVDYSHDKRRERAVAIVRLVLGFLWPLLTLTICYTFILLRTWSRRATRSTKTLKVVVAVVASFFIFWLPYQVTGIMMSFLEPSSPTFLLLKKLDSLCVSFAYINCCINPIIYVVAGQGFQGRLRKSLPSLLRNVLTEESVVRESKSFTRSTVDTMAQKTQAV

[4] = biological target: C5aR^WT incubated with PMX53 (effector site blocked) (human) (UniProt P21730); assay: AFM dynamic force spectroscopy (FV- and FD-based AFM, Friddle-Noy-de Yoreo fit); C5a tethered by its N-terminal His6-tag to a tris-NTA-Ni2+ PEG27 tip; C5aR (wild type, mutant, or wild type incubated with PMX53) in DOPC/CHS liposomes adsorbed on mica; imaging buffer 20 mM HEPES, 300 mM NaCl; ≈24 °C; Kd calculated from ΔGbu = kbT × ln(0.018 Kd)
[5] = biological target: T1, wild type C5a anaphylatoxin chemotactic …; assay: as above; conditions: both partners purified
[6] = biological target: T2, C5aRΔTyr mutant (Y11F and Y14F), reconstituted in DOPC/CHS liposomes (human, UniProt P21730 1-350, Y11F | Y14F); assay: as above; conditions: both partners purified
T2 construct: C5a anaphylatoxin chemotactic receptor 1 (C5aR), human; lack of tyrosine sulfonation validated by western blot; The methods print the mutations as 'Y11F and F14F'; the results print Y11F and Y14F; also called C5aR∆Tyr; source: HEK-293S GnTI- cells (BacMam), purified, reconstituted in DOPC/CHS liposomes
T2 sequence (looked up): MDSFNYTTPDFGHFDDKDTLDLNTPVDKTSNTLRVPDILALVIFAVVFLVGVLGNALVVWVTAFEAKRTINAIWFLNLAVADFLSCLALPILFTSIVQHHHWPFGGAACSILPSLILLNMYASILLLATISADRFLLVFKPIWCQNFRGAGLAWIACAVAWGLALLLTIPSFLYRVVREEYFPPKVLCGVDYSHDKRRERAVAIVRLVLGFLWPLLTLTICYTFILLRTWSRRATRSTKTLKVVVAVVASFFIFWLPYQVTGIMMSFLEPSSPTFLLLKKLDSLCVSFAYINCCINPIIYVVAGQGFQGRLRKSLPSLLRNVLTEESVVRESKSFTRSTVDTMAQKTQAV

CCCCn1c(-c2ccccc2)nc(-c2ccccc2)c1CN(Cc1ccc2c(c1)OCO2)Cc1ccc2c(c1)OCO2 [NDT9513727]
antagonist action (C5aR [1]; recent structural studies): allosteric modulators with highly reversible action

Cc1ccc(NC(=O)[C@H]2CCCN(C(=O)c3c(C)cccc3F)[C@H]2c2ccc(NC3CCCC3)cc2)cc1C(F)(F)F [avacopan]
antagonist action (C5aR [1]; recent structural studies): allosteric modulators with highly reversible action
therapeutic efficacy (C5aR [1]; to advance into late-stage clinical trials): sufficient therapeutic efficacy

Ace-Phe-[{Orn}-Pro-{D-Cha}-Trp-Arg] (sidechain bridge or staple) [PMX53, cyclic antagonist peptide that mimics the C-terminal structure of the endogenous C5a ligand]
affinity towards the effector site (C5aR [2]): nanomolar affinity
antagonist action (C5aR [1]): potent orthosteric antagonist with insurmountable action

B1: PMX53-Gly3-Cys (Cys-Gly3-Phe-[{Orn}Pro-{D-Cha}-Trp-Arg]) (peptide)
chain: CGGGF[Orn]P[dCha]WR
modifications: lactam 6-C; not fully specified; printed as Cys-Gly3-Phe-[{Orn}Pro-{D-Cha}-Trp-Arg]
Kd [3]: 4.7 nM

B2: complement C5a anaphylatoxin with N-terminal His6-tag (ligand, human, UniProt P01031 678-751, looked up)
chain: TLQKKIEEIAAKYKHSVVKKCCYDGACVNNDETCEQRAARISLGPRCIKAFTECCVVASQLRANISHKDMQLGR
notes: C5a anaphylatoxin, the 74-amino acid cut product of complement C5; numbers count on: C5a itself (R74 is its C-terminal residue); Tethered by its His6-tag to a tris-NTA-Ni2+ PEG27 AFM tip; C5a from R&D Systems is named only for the GTPgammaS assay; also called C5a ligand; endogenous C5a ligand; not shown: His6, N-terminal, kept
Kd [4]: 800 mM
equilibrium force Feq [4]: 29 pN
residence time τ0.5 [4]: 0.2 ms
Kd [5]: ~4.5 nM
Kd [6]: ~20 mM
